Where no end group is shown, it is not given here. [ ]: non-standard residue; d: D form. The star is where a group is joined. 1Nal = N[C@@H](Cc1cccc2ccccc12)C(=O)O; Palmitoyl = CCCCCCCCCCCCCCCC(=O)*; Nle = CCCC[C@H](N)C(=O)O; Dap = NC[C@H](N)C(=O)O
T1: rat PrRP receptor in RC-4B/C cells (rat, UniProt Q64121 1-370)
T1 construct: whole, on cells; also called the rat receptor; GPR10
T1 sequence (looked up): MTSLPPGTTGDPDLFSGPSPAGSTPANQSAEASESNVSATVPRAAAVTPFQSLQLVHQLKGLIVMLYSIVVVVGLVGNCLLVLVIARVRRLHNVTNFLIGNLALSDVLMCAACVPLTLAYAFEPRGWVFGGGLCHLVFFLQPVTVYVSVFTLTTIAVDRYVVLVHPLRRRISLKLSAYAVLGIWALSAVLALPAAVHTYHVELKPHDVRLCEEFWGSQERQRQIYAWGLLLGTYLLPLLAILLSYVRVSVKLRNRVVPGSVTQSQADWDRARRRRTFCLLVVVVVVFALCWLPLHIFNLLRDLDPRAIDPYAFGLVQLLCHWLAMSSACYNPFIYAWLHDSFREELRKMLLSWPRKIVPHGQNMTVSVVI


Columns and labels:
[1] = biological target: T1, rat PrRP receptor in RC-4B/C cells; assay: competition with 125I-rat PrRP31 on RC-4B/C cells; Ki by Cheng-Prusoff
Procedure: (§1) The rat pituitary cell line RC-4B/C (ATCC, Manassas, USA) was grown on 24-well plates which had their bottom coated with polyethyleneimine. The cells were grown to the optimal density of 300-450 thousand per well.
(§2) Plates were incubated for 60 minutes at room temperature. After incubation, the cells were solubilized in 0.1 mol/l solution of NaOH and the radioactivity bound to the cells was counted using a γ-counter. The experiments were performed in duplicate and repeated at least three times.
For evaluation of competitive binding experiments, the program Graph Pad Prism Software (San Diego, Calif., USA) was used. A method of nonlinear regression assuming one-site binding was used.

[2] = biological target: T1, rat PrRP receptor in RC-4B/C cells; assay: competition with 125I-rat PrRP31 on RC-4B/C cells
Procedure: as §1, §2

Row | Ki [1] | % of PrRP31 binding [2] | Binder
1 | 3.74 nM | 132% | [Dap]RAHQHS[Nle]ETRTPDINPAWYTGRGIRPVGRF-NH2 (N-terminus assumed; SMILES CCCC[C@H](NC(=O)[C@H](CO)NC(=O)[C@H](Cc1c[nH]cn1)NC(=O)[C@H](CCC(N)=O)NC(=O)[C@H](Cc1c[nH]cn1)NC(=O)[C@H](C)NC(=O)[C@H](CCCNC(=N)N)NC(=O)[C@@H](N)CN)C(=O)N[C@@H](CCC(=O)O)C(=O)N[C@H](C(=O)N[C@@H](CCCNC(=N)N)C(=O)N[C@H](C(=O)N1CCC[C@H]1C(=O)N[C@@H](CC(=O)O)C(=O)N[C@H](C(=O)N[C@@H](CC(N)=O)C(=O)N1CCC[C@H]1C(=O)N[C@@H](C)C(=O)N[C@@H](Cc1c[nH]c2ccccc12)C(=O)N[C@@H](Cc1ccc(O)cc1)C(=O)N[C@H](C(=O)NCC(=O)N[C@@H](CCCNC(=N)N)C(=O)NCC(=O)N[C@H](C(=O)N[C@@H](CCCNC(=N)N)C(=O)N1CCC[C@H]1C(=O)N[C@H](C(=O)NCC(=O)N[C@@H](CCCNC(=N)N)C(=O)N[C@@H](Cc1ccccc1)C(N)=O)C(C)C)[C@@H](C)CC)[C@@H](C)O)[C@@H](C)CC)[C@@H](C)O)[C@@H](C)O, analog of rat PrRP31; also called [Dpr^1]PrRP31) [analog no. 1]
2 | 60.1 nM | 8% | [Dap]RAHQHS[Nle]ETRTPDINPAWYTGRGIRPVGR[1Nal]-NH2 (N-terminus assumed; SMILES CCCC[C@H](NC(=O)[C@H](CO)NC(=O)[C@H](Cc1c[nH]cn1)NC(=O)[C@H](CCC(N)=O)NC(=O)[C@H](Cc1c[nH]cn1)NC(=O)[C@H](C)NC(=O)[C@H](CCCNC(=N)N)NC(=O)[C@@H](N)CN)C(=O)N[C@@H](CCC(=O)O)C(=O)N[C@H](C(=O)N[C@@H](CCCNC(=N)N)C(=O)N[C@H](C(=O)N1CCC[C@H]1C(=O)N[C@@H](CC(=O)O)C(=O)N[C@H](C(=O)N[C@@H](CC(N)=O)C(=O)N1CCC[C@H]1C(=O)N[C@@H](C)C(=O)N[C@@H](Cc1c[nH]c2ccccc12)C(=O)N[C@@H](Cc1ccc(O)cc1)C(=O)N[C@H](C(=O)NCC(=O)N[C@@H](CCCNC(=N)N)C(=O)NCC(=O)N[C@H](C(=O)N[C@@H](CCCNC(=N)N)C(=O)N1CCC[C@H]1C(=O)N[C@H](C(=O)NCC(=O)N[C@@H](CCCNC(=N)N)C(=O)N[C@@H](Cc1cccc2ccccc12)C(N)=O)C(C)C)[C@@H](C)CC)[C@@H](C)O)[C@@H](C)CC)[C@@H](C)O)[C@@H](C)O, analog of rat PrRP31) [analog no. 7]
3 | 0.46 nM | 1070% | [Dap](Palmitoyl)RAHQHS[Nle]ETRTPDINPAWYTGRGIRPVGRF-NH2 (N-terminus assumed; SMILES CCCCCCCCCCCCCCCC(=O)NC[C@H](N)C(=O)N[C@@H](CCCNC(=N)N)C(=O)N[C@@H](C)C(=O)N[C@@H](Cc1c[nH]cn1)C(=O)N[C@@H](CCC(N)=O)C(=O)N[C@@H](Cc1c[nH]cn1)C(=O)N[C@@H](CO)C(=O)N[C@@H](CCCC)C(=O)N[C@@H](CCC(=O)O)C(=O)N[C@H](C(=O)N[C@@H](CCCNC(=N)N)C(=O)N[C@H](C(=O)N1CCC[C@H]1C(=O)N[C@@H](CC(=O)O)C(=O)N[C@H](C(=O)N[C@@H](CC(N)=O)C(=O)N1CCC[C@H]1C(=O)N[C@@H](C)C(=O)N[C@@H](Cc1c[nH]c2ccccc12)C(=O)N[C@@H](Cc1ccc(O)cc1)C(=O)N[C@H](C(=O)NCC(=O)N[C@@H](CCCNC(=N)N)C(=O)NCC(=O)N[C@H](C(=O)N[C@@H](CCCNC(=N)N)C(=O)N1CCC[C@H]1C(=O)N[C@H](C(=O)NCC(=O)N[C@@H](CCCNC(=N)N)C(=O)N[C@@H](Cc1ccccc1)C(N)=O)C(C)C)[C@@H](C)CC)[C@@H](C)O)[C@@H](C)CC)[C@@H](C)O)[C@@H](C)O, analog of rat PrRP31; also called [Dpr(palm)^1]PrRP31) [analog no. 6]

Source: US9937235B2, “Lipidated peptides as anti-obesity agents” (USTAV ORGANICKE CHEMIE A BIOCHEMIE AKADEMIE VED CR, V.V.I, priority 2012, dated 2018)
